According to patent publication US20180305427A1 (ACCELERON PHARMA, published 2018):
Each block holds one molecule with its values, some of them ahead of it.

Columns and labels:
myostatin (R&D Systems) [1] = molecular target: myostatin (R&D Systems) (UniProt O14793); test: cell-based or functional assay
myostatin (R&D Systems) [2] = molecular target: T1, myostatin (R&D Systems) (UniProt O14793 267-375); test: cell-based or functional assay
T1 sequence (looked up): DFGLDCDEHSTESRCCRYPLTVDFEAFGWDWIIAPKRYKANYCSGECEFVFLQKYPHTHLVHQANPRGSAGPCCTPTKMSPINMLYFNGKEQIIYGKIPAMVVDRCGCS

- IC50 (nM), inhibition of myostatin signaling, pGL3(CAGA)12 reporter gene assay in A204 cells (myostatin (R&D Systems) [1]): > 100 nM
Molecule: Dual-arm WFIKKN2-G1Fc (from UniProt Q8TEU8 35-576) (Fc fusion)

- IC50 (nM), inhibition of myostatin signaling, pGL3(CAGA)12 reporter gene assay in A204 cells (myostatin (R&D Systems) [1]): 2.9 nM
Molecule: Single-arm WFIKKN2-G1Fc (from UniProt P0DOX5 209-449) (Fc fusion)

- IC50 (nM), inhibition of myostatin signaling, pGL3(CAGA)12 reporter gene assay in A204 cells (myostatin (R&D Systems) [2]): 1.4 nM
B1: Single-chain WFIKKN2-His6 (other)
chain: LPPIRYSHAGICPNDMNPNLWVDAQSTCRRECETDQECETYEKCCPNVCGTKSCVAARYMDVKGKKGPVGMPKEATCDHFMCLQQGSECDIWDGQPVCKCKDRCEKEPSFTCASDGLTYYNRCYMDAEACSKGITLAVVTCRYHFTWPNTSPPPPETTMHPTTASPETPELDMAAPALLNNPVHQSVTMGETVSFLCDVVGRPRPEITWEKQLEDRENVVMRPNHVRGNVVVTNIAQLVIYNAQLQDAGIYTCTARNVAGVLRADFPLSVVRGHQAAATSESSPNGTAFPAAECLKPPDSEDCGEEQTRWHFDAQANNCLTFTFGHCHRNLNHFETYEACMLACMSGPLAACSLPALQGPCKAYAPRWAYNSQTGQCQSFVYGGCEGNGNNFESREACEESCPFPRGNQRCRACKPRQKLVTSFCRSDFVILGRVSELTEEPDSGRALVTVDEVLKDEKMGLKFLGQEPLEVTLLHVDWACPCPNVTVSEMPLIIMGEVDGGMAMLRPDSFVGASSARRVRKLREVMHKKTCDVLKEFLGLHHHHHHH
